These results are taken from the nanobody polyreactivity screen of Harvey et al. (2022).

The nature of this data set: yeast display, Sf9 membrane polyspecificity reagent, FACS + sequencing; frameworks hold sequencing errors. Put shortly:
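Nanobodies from a synthetic yeast display library (Saccharomyces cerevisiae BJ5465), induced 36–48 hours with galactose, were stained 1 hour at 4 °C with 10% biotinylated, detergent-solubilized Sf9 membrane reagent, enriched on streptavidin microbeads, then FACS-sorted. Anti-HA (expression) and streptavidin (reagent binding) fluorescence set low and high (top ~1%) gates. Polyreactivity labels come from the gate of origin. Genes were colony-PCR amplified, MiSeq 2 × 250 sequenced and filtered by CDR length.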
With “QVQLVESGGGLVQAGGSLRLSCAASGSILKGYAMGWYRQAPGKERELVAAISGSGGSTHYADSVKGRFTISRDNAKNTVYLQMNSLKPEDTAVYYCAAAYKWTYYWGQGTQVTVSS”, the “polyreactivity (PSR sort gate)” value is “high polyreactivity”. The same measure for “QVQLVESGGGLVQAGGSLRLSCAASGSILKYYAMGWYRQAPGKERELVAAISSGGSTYYADSVKGRFTISRDNAKNTVYLQMNSLKPEDTAVYYCAAAWYGAKYIVLYDYWGQGTQVTVSS”: “low polyreactivity”; for “QVQLVESGGGLVQAGGSLRLSCAASGSILLDNAMGWSRQAPGKERELVAAISLSGGGSTYYADSVKGRFTISRDNAKNTVYLQMNSLKPEATAVYYCAAASTYPLPYDYWGQGTQVTVSS”: “low polyreactivity”; for “QVQLVESGGGLVQAGGSLRLSCAASGSILLPYAMGRYRHAPGKERELVAAITYRGASTHYAASVKGRFTISRDNAKNTVYLQMNSLKQEDPAVYYCAARGWVYYASEMDYWGQGTQGTVSS”: “low polyreactivity”.

For “QVQLVESGGGLVQAGGSLRLSCAASGSILLRNTMGWYRQAPGKERELVAAISWRGGSTYYADSVKGRFTISRDNAKNTVYLQMNSLKPEDTAVYYCAARWVASHKGGYWGQGTQVTVSS”, the “polyreactivity (PSR sort gate)” value is given as “high polyreactivity”. The result for “QVQLVESGGGLVQAGGSLRLSCAASGSILNRYAMGWYRQAPGKERELVAAISRRSGSTYYADSVKGRFTISRDNAKNTVYLQMNSLKPEDTAVYYCAATSSLGDFRYDYWGQGTQVTVSS” reads “high polyreactivity”; that for “QVQLVESGGGLVQAGGSLRLSCAASGSILNSYAMGWYRQAPGKERELVATITSGSRTNYADSVKGRFTISRDNAKNTVYLQMNSLKPEDTAVYYCATEYQRRHYIGHNYWGQGTQVTVSS”, “low polyreactivity”; that for “QVQLVESGGGLVQAGGSLRLSCAASGSILPYYAMGWYRPAPGKERELVATITDGTDTYYADSVKGRFTISRDNAKNTVYLQMTSLKPEDTAVYYCARKQYWGYDYWGQGTQVTVSS”, “low polyreactivity”. Turning to “QVQLVESGGGLVQAGGSLRLSCAASGSILQPNAMGWYRQAPGKERELVAAISWSGDNTYYADSVKGRFTISRDNAKNTVYLQMNSLKPEDTAVYYCATDADIYFQEYDYWGQGTQVTVSS”, the “polyreactivity (PSR sort gate)” value is given as “low polyreactivity”. The result for “QVQLVESGGGLVQAGGSLRLSCAASGSILQRYAMGWYRQAPGKERELVAAISTSGSSTYYADSVKGRFTISRDNAKNTVYLQMNSLKPEDTAVYYCAAKSRKFDYWGQGTQVTVSS” reads “high polyreactivity”. Take “QVQLVESGGGLVQAGGSLRLSCAASGSILQTNVMGWYRQAPGKEREFVAAIRWSTVSTYYADSVKGRFTISRDNAKNTVYLQMKSLKPEDTAVYYCASAKSWYSYKMDYWGQGTQVTVSS”: the “polyreactivity (PSR sort gate)” value was “low polyreactivity”. The result for “QVQLVESGGGLVQAGGSLRLSCAASGSILQYYAMGWYRQTPGKERELVAAITSGGSTYYADSVKGRFTISRDNAKNTVYLQMNSLKPEDTAVYYCAKVYRRAQYDYCGQGTQVTVSS” reads “low polyreactivity”; that for “QVQLVESGGGLVQAGGSLRLSCAASGSILRLYVMGWYRQAPGKERELVADISDRGGSTYYADSVKGRFTISRDNAKNTVYLQLNSLKPEDTAVYYCDKDSETAGATYTEYDYWGQGTQVTVSS”, “low polyreactivity”. With “QVQLVESGGGLVQAGGSLRLSCAASGSILRSNAMGWYRQAPGKERELVATITNSGGSTYADSVKGCFTISRDNANNTVYLQMNSLKPEDTAVYYCAKAGAGESIAKYDYWGQGTQVTVSS”, the “polyreactivity (PSR sort gate)” value is “low polyreactivity”. For “QVQLVESGGGLVQAGGSLRLSCAASGSILSDNAMGWYRQAPGKERELVASIRSGDITKYADSVKGRFTFSRDNAKNTVYLQMNSLKPEDTAVYYCASAGRVLYTRKYYGWRYLNDYWGQGTQVTVSS”, the “polyreactivity (PSR sort gate)” value is on record as “low polyreactivity”. As to “QVQLVESGGGLVQAGGSLRLSCAASGSILSFYAMGWYRQAPGKERELVATISRRGGSTYYADSVKGRFTISRDNAKNTVYLQMNSLKPEDTAVYYCNKPGLSAWTQSSQYEYDYWGQGTQVTVSS”, the “polyreactivity (PSR sort gate)” value was “high polyreactivity”. On to “QVQLVESGGGLVQAGGSLRLSCAASGSILSRYAMGWYRQAPGKERELVAAISSRGGSTYYADSVKGRFTISRDNAKNTVYLQMNSLKPEDTAVYYCAADPVGEVRVYARGYSWGQGTQVTVSS”, for which the “polyreactivity (PSR sort gate)” value is “high polyreactivity”. For the sequence “QVQLVESGGGLVQAGGSLRLSCAASGSILSVNAMGWYRQAPGKERELVAAINWSGGSTYYADSVKGRFTISRDNAKNTVYLQMNSLKPEDTAVYYCAARWRYSYVGDFDYWGQGTQVTVSS”, the “polyreactivity (PSR sort gate)” value is listed as “high polyreactivity”. The result for “QVQLVESGGGLVQAGGSLRLSCAASGSILSYYAMGWYRQAPGKERELVAAISKTGGSTYYADSVKGRFTISRDNANNTVYLHMNSLKPEVTAVYYCAAVDNIGRYEYWGQGTQVTVSS” reads “high polyreactivity”; that for “QVQLVESGGGLVQAGGSLRLSCAASGSILTGNAMGWYRPAPGKERELVAAISAGGTRTYYADSVKGRFTISRDNAKNTVYLQMNSLKPEDTAVYYCAADSSKRIGYDYWGQGTQVTVSS”, “high polyreactivity”. The result for “QVQLVESGGGLVQAGGSLRLSCAASGSILTLYSMGWYRQAPGKERELVAAISSTGGRTYYADSVKGRFTISRDNAKNTVYVQMNSLKPEDTAFYYCAARGWGGLRSYGYYYWGQGTQVTVSS” reads “high polyreactivity”; that for “QVQLVESGGGLVQAGGSLRLSCAASGSILVEYAMGWYRQAPGKERELVAAISSNGGSTYYADSVKGRFTISRDNAKNTVYLQMNSLKPEDTAVYYCATRQSWSDYYLNVDYDYWGQGTKVTVSS”, “low polyreactivity”; that for “QVQLVESGGGLVQAGGSLRLSCAASGSILVSYAMGWYRPAPGKERELVAAITSGGRTKYADSVKGRFTISRDNAKNTVYLQMNSLKPEDTAVYYCAADDPLSYQFDYWGQGTQVTVSS”, “high polyreactivity”. The same measure for “QVQLVESGGGLVQAGGSLRLSCAASGSILYRYAMGWSRPAPGKERELDAAISYNGGRTYYADSVKGRFSISRDNAKNTVYLQMNSLKPEDTAVYYCNAAGRDDAYDYWGQGTQVTVSS”: “high polyreactivity”. In the case of “QVQLVESGGGLVQAGGSLRLSCAASGSILYRYAMGWYRQAPGKERELVAGISKTGSSTYYADSVKGRFTISRDNAKNTVYLQMNSLKPEDTAVYYCNVRHGYSGKDYRYDYWGQGTQVTVSS”, the “polyreactivity (PSR sort gate)” value is given as “low polyreactivity”.

In the case of “QVQLVESGGGLVQAGGSLRLSCAASGSILYVNAMGWYRQAPGKERELVASITDGGNTYYADSVKGRFTISRDNAKNTVYLQMNSLKPEDTAVYYCNAVGRIKVDYGLEYWGQGTQVTVSS”, the “polyreactivity (PSR sort gate)” value is “low polyreactivity”. The result for “QVQLVESGGGLVQAGGSLRLSCAASGSILYVYAMGWYRQAPGKERELVAVITSGGSTNYADSVKGRFTISRDNAKNTVYLQMNSLKPEDTAVYYCAADPYSVYGGDYWGQGTQVTLSS” reads “low polyreactivity”. In the case of “QVQLVESGGGLVQAGGSLRLSCAASGSILYYYAMGWYRQAPVKERELVATITSGGTTNYADSVKGRFTISRDNAKNTVYLQMISLKPEDTAVYYCAADWAWDTKSAPAYPRAYDYWGPGTQVTVSS”, the “polyreactivity (PSR sort gate)” value was “low polyreactivity”. The result for “QVQLVESGGGLVQAGGSLRLSCAASGSIRYYAMGWYRQAPVKEREFVAAISRRGSSTNYADSVKGRFTISRDNAKNTVYLQMNSLKPDDTAVYYCARGLDVISYGYDYWGQGTQVTVSS” reads “high polyreactivity”; that for “QVQLVESGGGLVQAGGSLRLSCAASGSIRYYYVMGWYRQAPGKERELVAAITSGGSTYYADSVKGRFTISRDNAKNTVYLQMNSLKPEDTAVYYCNARTRSLTGSRFNYWGQVTQVTVSS”, “high polyreactivity”; that for “QVQLVESGGGLVQAGGSLRLSCAASGSISAGNAMGWYRQAPGKERELVAAITTSGGSTYYADSVKGRFTISRDNAKNTVYLQMNSLKPEDTAVYYCNVDPRKRSYDYWGQGTQVTVSS”, “high polyreactivity”. For “QVQLVESGGGLVQAGGSLRLSCAASGSISDSNAMGSYRQAPGKERELVAAIDDSGGSTYYADSVKGRFTISRDNAKNTVYLQMNSLKPEDTAVYYCAKTKTQYLTSEIRFVYWGQGTQVTVSS”, the “polyreactivity (PSR sort gate)” value was “low polyreactivity”. The same measure for “QVQLVESGGGLVQAGGSLRLSCAASGSISDTYGMGWYRQAPGKERELVASITWSSGSTDYADSVKGRFTISRDNAKNTVYLQMNSLKPAETAVYYCATYEPFYSFIFRGIYDYWGQGTQVTVSS”: “low polyreactivity”; for “QVQLVESGGGLVQAGGSLRLSCAASGSISFYAMGWYRQAPGKERELVAAITTSGGRTYYADSVKGRFTISRDNAKNTVYLQMNSLKPEDTAVYYCNVASKGRYARYAAEYGSWGQGTQVTVSS”: “high polyreactivity”. Regarding “QVQLVESGGGLVQAGGSLRLSCAASGSISGLYAMGWYRQAPGKERELVARIRWRGDSTYYADSVKGRFTISRDNAKNTVYLQMNSLNPEDTAVYYCAASAYSGKVNKYNYWGQGTQVTVSS”, the “polyreactivity (PSR sort gate)” value is “high polyreactivity”. In the case of “QVQLVESGGGLVQAGGSLRLSCAASGSISGLYAMGWYRQAPGKESELVAAISFSGGSTYYADSVKGRFTISRDNAKNTVYFQMNSLKPEDTAVYYCAADGQYGGVPNTSEWTFDYWGQGTQVTVSS”, the “polyreactivity (PSR sort gate)” value is reported as “low polyreactivity”. The result for “QVQLVESGGGLVQAGGSLRLSCAASGSISGRYAMGWYRQAPGKERELVAAISWIGGSTYYADSVKGRFTISRDNAKNTVYLQMNSLKPEDTAVYYCNVTIDTRTHPLLVVFYGYDYWGQGTQVTVSS” reads “low polyreactivity”; that for “QVQLVESGGGLVQAGGSLRLSCAASGSISGSNDMGWYRQAPGKERELVAAISGGSSTNYADSVKGRFTISRDNAKNTVYFQMNSLKPEDTAVYYCAARYRWFFFYGPHSPGYNYWGQGTQVTVSS”, “high polyreactivity”. The same measure for “QVQLVESGGGLVQAGGSLRLSCAASGSISGVYAMGWYRQAAGKDRALVAASSGGSGRTYYADSVKGRFTISRDNAKNTVYLQMISLKPEDTAVYYCAKTVLYSSYRKYDYWGQGSQVTVSS”: “high polyreactivity”.

For the sequence “QVQLVESGGGLVQAGGSLRLSCAASGSISGYNAMGWYRPAPGKERELVAVITTDGSTNYADSVKGRFTISRDNAKNTVYLQMNSLKPEDTAVYYCNTDDGWRLLWEYDYWGQGTQVTVSS”, the “polyreactivity (PSR sort gate)” value is “low polyreactivity”.
